The text below walks through data of article PMC7961906, “CNBP Binds and Unfolds In Vitro G-Quadruplexes Formed in the SARS-CoV-2 Positive and Negative Genome Strands”.

The target of series [1] is T1, CNBP (ZNF9) (Homo sapiens, UniProt P62633 1-177). Description: CD (G4 unfolding); 100 mM K+ folding; 8 uM, 1:1; EMSA: 20 mM HEPES pH 8.0, 10 mM MgCl2, 1 mM EDTA, 0.5 ug/uL heparin, 1 mM DTT, 1 ug/uL BSA, 10% glycerol, 100 mM KCl or LiCl, 0.75 uM RNA, 30 min 37 C; CD: 10 mM Tris-HCl pH 7.5 + 100/200 mM KCl, protein incubation 30 min 37 C, spectra at 20 C. The settings on record: protein: recombinant; tags: tag-free (expressed from pET-32a-TEV-CNBP, tag removed); intramolecular G4. Background: Mobility shift assays separate free from complexed probe on a gel.

In series [2] the target is T1, CNBP (ZNF9). Nature of the series: CD (G4 unfolding); 200 mM K+ folding; 8 uM, 1:1; EMSA: 20 mM HEPES pH 8.0, 10 mM MgCl2, 1 mM EDTA, 0.5 ug/uL heparin, 1 mM DTT, 1 ug/uL BSA, 10% glycerol, 100 mM KCl or LiCl, 0.75 uM RNA, 30 min 37 C; CD: 10 mM Tris-HCl pH 7.5 + 100/200 mM KCl, protein incubation 30 min 37 C, spectra at 20 C. The settings on record: protein: recombinant; tags: tag-free (expressed from pET-32a-TEV-CNBP, tag removed); intramolecular G4.

In series [3] the target is T1, CNBP (ZNF9). Description: EMSA; folded in 200 mM Li+; 100 mM LiCl in binding; slightly higher affinity than in K+; EMSA: 20 mM HEPES pH 8.0, 10 mM MgCl2, 1 mM EDTA, 0.5 ug/uL heparin, 1 mM DTT, 1 ug/uL BSA, 10% glycerol, 100 mM KCl or LiCl, 0.75 uM RNA, 30 min 37 C; CD: 10 mM Tris-HCl pH 7.5 + 100/200 mM KCl, protein incubation 30 min 37 C, spectra at 20 C. The settings on record: protein: recombinant; tags: tag-free (expressed from pET-32a-TEV-CNBP, tag removed); intramolecular G4 (two-quartet).

Series [4] deals with T1, CNBP (ZNF9). Description: EMSA; folded in 200 mM Li+ or K+; EMSA: 20 mM HEPES pH 8.0, 10 mM MgCl2, 1 mM EDTA, 0.5 ug/uL heparin, 1 mM DTT, 1 ug/uL BSA, 10% glycerol, 100 mM KCl or LiCl, 0.75 uM RNA, 30 min 37 C; CD: 10 mM Tris-HCl pH 7.5 + 100/200 mM KCl, protein incubation 30 min 37 C, spectra at 20 C. The settings on record: protein: recombinant; tags: tag-free (expressed from pET-32a-TEV-CNBP, tag removed); no G4 formed; predicted 4-bp stem-loop.

For series [5], the target named is T1, CNBP (ZNF9). Nature of the series: EMSA; folded in 100 mM Li+; 100 mM LiCl in binding; slightly higher affinity than in K+; EMSA: 20 mM HEPES pH 8.0, 10 mM MgCl2, 1 mM EDTA, 0.5 ug/uL heparin, 1 mM DTT, 1 ug/uL BSA, 10% glycerol, 100 mM KCl or LiCl, 0.75 uM RNA, 30 min 37 C; CD: 10 mM Tris-HCl pH 7.5 + 100/200 mM KCl, protein incubation 30 min 37 C, spectra at 20 C. The settings on record: protein: recombinant; tags: tag-free (expressed from pET-32a-TEV-CNBP, tag removed); intramolecular G4; minor self-assembled multimer band in Li+.

T1 sequence (P62633 whole entry): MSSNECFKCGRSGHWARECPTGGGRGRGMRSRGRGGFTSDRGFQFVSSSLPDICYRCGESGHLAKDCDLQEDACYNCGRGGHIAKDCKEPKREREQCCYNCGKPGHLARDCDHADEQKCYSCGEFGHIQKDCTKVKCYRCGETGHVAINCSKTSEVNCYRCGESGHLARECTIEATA

B1: -23,877 (structured_RNA)
RNA: GGAUAUGGUUGGUUUGG
Take B1: the binding result in the series with CNBP (ZNF9) [1] is reported as “binds”.

B2: -13,963 (structured_RNA)
RNA: GGAUCUGGGUAAGGAAGG
As for B2, in the series with CNBP (ZNF9) [2], the binding result is “binds”.

B3: +644 (structured_RNA)
RNA: GGUAAUAAAGGAGCUGGUGG
As to B3, the binding result with CNBP (ZNF9) [3] is “binds”.

B4: +28,903 (structured_RNA)
RNA: GGCUGGCAAUGGCGG
For B4, in the series with CNBP (ZNF9) [4], the binding result is “no binding”.

B5: +3467 (structured_RNA)
RNA: GGAGGAGGUGUUGCAGGA
Consider B5, for which the binding result with CNBP (ZNF9) [5] was “binds”.
